One test concerns the target T1, Biotin-hBA2 (human, biotinylated (sites not given)).
T1 construct: hBA2 consists of two dimers; also called biotinylated hBA2; human bow-Ang2
Kind of test: blocking ELISA, biotin-hBA2 to hTie-2. (In general: In an ELISA, binding on a coated surface is turned into a signal by an enzyme label.)

Test [1] concerns the target T2, Full-length human Ang-1 protein conjugated to 6x histidine tag (human, UniProt Q15389 20-498, limits assumed).
T2 construct: Bought (R&D Systems); printed as full-length; also called hAng-1 WT; Ang-1-His; not shown: 6x histidine tag
T2 sequence (looked up): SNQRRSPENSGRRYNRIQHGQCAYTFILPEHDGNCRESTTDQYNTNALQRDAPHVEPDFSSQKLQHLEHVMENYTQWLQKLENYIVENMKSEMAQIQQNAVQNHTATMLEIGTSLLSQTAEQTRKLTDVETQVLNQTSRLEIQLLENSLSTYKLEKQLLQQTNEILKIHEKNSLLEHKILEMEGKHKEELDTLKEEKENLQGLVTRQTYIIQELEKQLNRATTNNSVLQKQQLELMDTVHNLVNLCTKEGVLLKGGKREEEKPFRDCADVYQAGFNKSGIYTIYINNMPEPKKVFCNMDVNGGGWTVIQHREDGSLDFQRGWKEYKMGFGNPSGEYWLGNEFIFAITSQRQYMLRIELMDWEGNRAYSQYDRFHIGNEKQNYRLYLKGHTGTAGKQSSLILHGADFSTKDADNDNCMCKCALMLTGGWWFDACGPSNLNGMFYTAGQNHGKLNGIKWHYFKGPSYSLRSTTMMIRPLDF
Kind of test: blocking ELISA, 0.6 nM hAng-1-His to coated hTie-2-mFc. How it is done:
(§1) Briefly, hTie-2-mFc (a chimeric construct consisting of human Tie-2 conjugated to mouse IgG; SEQ ID NO:525) was coated onto 96-well plates at a concentration of 2 μg/ml and incubated overnight followed by washing four times in wash buffer (PBS with 0.05% Tween-20). The plate was then blocked with PBS (Irvine Scientific, Santa Ana, Calif.) containing 0.5% BSA (Sigma-Aldrich Corp., St. Louis, Mo.) for one hour at room temperature. […] The antibody/antigen mixture was then added to the plate containing hTie-2-mFc and incubated for one hour at room temperature. […] Absorbance was read at OD₄₅₀ for 0.1 sec.

The target in test [2] is T3, Full-length human Ang-2 protein conjugated to 6x histidine tag (human, UniProt O15123 19-496).
T3 construct: Bought (R&D Systems); printed as full-length; also called hAng-2 WT; Ang-2-His; not shown: 6x histidine tag
T3 sequence: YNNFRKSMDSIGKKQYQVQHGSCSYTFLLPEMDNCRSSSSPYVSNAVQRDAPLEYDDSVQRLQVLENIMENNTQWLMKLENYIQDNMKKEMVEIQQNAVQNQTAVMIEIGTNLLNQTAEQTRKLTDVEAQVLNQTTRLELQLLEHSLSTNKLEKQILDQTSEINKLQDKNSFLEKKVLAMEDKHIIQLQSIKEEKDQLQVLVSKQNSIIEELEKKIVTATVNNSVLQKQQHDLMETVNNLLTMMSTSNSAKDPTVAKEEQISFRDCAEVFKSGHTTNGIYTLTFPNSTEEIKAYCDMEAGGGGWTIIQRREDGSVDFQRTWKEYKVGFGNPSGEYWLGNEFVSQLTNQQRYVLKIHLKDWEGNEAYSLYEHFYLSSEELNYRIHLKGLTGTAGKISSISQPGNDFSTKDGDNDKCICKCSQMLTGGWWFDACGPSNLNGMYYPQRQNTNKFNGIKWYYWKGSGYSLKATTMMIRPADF
In words: blocking ELISA, 0.6 nM hAng-2-His to coated hTie-2-mFc. As to the method:
as §1

The target in a further test is T4, Human Ang-2FD-hFc (human).
T4 construct: also called dimeric human Ang-2FD; human Ang-2FD protein conjugated to human IgG
In words: blocking ELISA, 16.67 nM antibody, Ang-2FD-hFc to coated hTie-2-mFc.

For the next test, the target named is T5, Mouse Ang-2FD-hFc (mouse (Mus musculus)).
T5 construct: also called dimeric mouse Ang-2FD
Described as above.

The next test concerns the target T6, Monkey Ang-2FD-hFc (monkey (Macca fascicularis)).
T6 construct: also called dimeric monkey Ang-2FD
Described as above.

Test [3] has as its target T7, hAng-1-WT (human, UniProt Q15389 20-498, limits assumed).
T7 construct: a tag is not mentioned there; also called full-length wild-type human Ang-1
T7 sequence (looked up): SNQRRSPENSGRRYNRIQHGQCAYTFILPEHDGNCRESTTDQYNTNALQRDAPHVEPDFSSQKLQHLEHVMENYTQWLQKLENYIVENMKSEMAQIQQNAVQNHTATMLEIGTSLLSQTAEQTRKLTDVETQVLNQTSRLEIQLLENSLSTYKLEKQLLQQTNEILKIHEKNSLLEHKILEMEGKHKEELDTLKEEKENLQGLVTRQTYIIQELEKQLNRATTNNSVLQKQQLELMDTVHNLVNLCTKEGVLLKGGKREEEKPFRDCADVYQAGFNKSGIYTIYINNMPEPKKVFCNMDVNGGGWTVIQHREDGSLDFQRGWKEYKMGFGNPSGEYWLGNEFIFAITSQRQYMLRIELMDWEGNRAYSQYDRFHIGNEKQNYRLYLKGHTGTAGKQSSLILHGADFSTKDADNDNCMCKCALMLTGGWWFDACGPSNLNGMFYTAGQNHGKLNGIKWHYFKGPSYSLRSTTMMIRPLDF
Kind of test: SPR, 1 uM blocker premixed with 10 nM hAng-1-WT, over hTie-2-mFc surface. As to the method:
(§2) In this experiment, a human Tie-2 full-length extracellular domain construct (hTie-2-mFc-ecto) was amine-coupled on a BIACORE™ chip to create a receptor coated surface. […] The equilibrated solutions were injected over the receptor surfaces at 5 μL/min for 5 minutes at 25° C.

Test [4] concerns the target T7, hAng-1-WT. In words: SPR, 1 uM blocker premixed with 10 nM hAng-1-WT, over hTie-2-mFc surface; RU of hAng-1 bound. As to the method: as §2
(SPR reads the build-up and loss of mass on a sensor chip optically.)

One may read the IC50 as the point on the concentration scale where inhibition reaches its midpoint.

T5 sequence (chain, as listed by the source limits assumed): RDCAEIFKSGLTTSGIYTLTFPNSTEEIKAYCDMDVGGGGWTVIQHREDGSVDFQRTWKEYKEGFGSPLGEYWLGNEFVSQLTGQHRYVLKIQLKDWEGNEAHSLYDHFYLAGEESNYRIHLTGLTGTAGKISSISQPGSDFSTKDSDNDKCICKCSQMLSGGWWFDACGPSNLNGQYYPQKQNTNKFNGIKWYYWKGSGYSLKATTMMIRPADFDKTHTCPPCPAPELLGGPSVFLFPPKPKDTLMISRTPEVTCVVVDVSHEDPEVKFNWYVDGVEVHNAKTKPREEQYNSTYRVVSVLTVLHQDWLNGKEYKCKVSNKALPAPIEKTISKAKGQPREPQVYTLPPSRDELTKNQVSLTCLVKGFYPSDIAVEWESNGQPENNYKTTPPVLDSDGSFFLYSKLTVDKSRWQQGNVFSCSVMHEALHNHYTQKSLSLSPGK
T1 sequence (chain, as listed by the source limits assumed): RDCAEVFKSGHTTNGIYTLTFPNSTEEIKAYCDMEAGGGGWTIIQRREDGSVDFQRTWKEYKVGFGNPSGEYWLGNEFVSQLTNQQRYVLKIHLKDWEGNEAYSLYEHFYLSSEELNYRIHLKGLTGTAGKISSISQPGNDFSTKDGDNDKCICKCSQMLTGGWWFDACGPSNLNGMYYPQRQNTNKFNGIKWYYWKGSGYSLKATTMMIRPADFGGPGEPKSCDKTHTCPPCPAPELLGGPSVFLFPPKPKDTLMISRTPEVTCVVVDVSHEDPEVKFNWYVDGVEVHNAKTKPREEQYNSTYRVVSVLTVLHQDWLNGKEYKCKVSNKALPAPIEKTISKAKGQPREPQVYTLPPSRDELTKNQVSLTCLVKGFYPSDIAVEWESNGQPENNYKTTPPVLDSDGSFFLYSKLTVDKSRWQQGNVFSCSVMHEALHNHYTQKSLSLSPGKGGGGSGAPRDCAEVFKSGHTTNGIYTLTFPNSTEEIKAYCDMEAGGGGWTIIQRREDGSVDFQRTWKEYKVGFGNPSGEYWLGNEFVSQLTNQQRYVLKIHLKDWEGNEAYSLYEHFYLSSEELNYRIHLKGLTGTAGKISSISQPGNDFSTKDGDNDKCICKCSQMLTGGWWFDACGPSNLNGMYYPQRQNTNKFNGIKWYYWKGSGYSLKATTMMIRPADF
T6 sequence (chain, as listed by the source limits assumed): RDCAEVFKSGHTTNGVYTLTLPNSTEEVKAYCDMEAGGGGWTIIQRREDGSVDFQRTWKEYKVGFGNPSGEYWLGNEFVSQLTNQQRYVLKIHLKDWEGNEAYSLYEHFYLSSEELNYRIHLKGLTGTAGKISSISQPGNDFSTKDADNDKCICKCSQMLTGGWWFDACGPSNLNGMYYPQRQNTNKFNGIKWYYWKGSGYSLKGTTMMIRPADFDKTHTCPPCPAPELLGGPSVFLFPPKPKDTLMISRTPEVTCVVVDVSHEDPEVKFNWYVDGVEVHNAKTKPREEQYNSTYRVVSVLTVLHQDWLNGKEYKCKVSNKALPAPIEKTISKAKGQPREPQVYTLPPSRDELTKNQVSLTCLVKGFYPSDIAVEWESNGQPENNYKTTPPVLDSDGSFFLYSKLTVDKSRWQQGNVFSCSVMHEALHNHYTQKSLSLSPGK
T4 sequence (chain, as listed by the source limits assumed): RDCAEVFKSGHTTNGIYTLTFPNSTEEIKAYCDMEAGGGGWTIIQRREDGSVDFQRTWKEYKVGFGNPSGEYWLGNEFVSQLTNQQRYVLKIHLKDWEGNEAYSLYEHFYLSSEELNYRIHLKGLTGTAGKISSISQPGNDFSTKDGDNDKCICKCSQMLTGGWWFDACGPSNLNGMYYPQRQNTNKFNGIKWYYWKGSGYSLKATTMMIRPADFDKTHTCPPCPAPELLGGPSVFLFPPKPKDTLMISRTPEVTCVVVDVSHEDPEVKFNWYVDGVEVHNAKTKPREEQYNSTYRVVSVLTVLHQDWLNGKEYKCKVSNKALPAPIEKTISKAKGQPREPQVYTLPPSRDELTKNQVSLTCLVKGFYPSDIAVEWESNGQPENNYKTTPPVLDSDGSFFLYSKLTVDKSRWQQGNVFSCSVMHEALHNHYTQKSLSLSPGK

B1: H1H744N (antibody, V domains shown)
VH: QVQLVQSGVEVKKPGASVKVSCKTSGYTFSNNGFSWVRQAPGQGLEWLGWISGYNGNTNYAQKFQGRVTMTTDTSTSTAYMELRTLRSDDTAVYYCARDQDYSNFHWLDPWGQGTLVTVAS
VL: DIQMTQSPSSVSASVGDRVIITCRASQGLSSWLAWYQQKPGTAPKLLIHSASSLQTGVPSRFSGSGSGTEFALTINSLQPEDFGTYYCQQANSFPLTFGGGTRVEIK
Regarding B1, the IC50 in the test with Biotin-hBA2 was 0.025 nM; in test [1] it was 187 nM; in test [2], 0.0787 nM. Moreover, the “Percent Blocking of Ang-2FD Binding to Tie-2” value in the test with Human Ang-2FD-hFc is 97.9%; with Mouse Ang-2FD-hFc, 97.6%; with Monkey Ang-2FD-hFc, 96.2%. Besides, the “Percent of Negative Control Binding” value in the test with hAng-1-WT [3] stood at 34%. Besides, the “RU (average)” value with hAng-1-WT [4] was determined as 57 RU.

The values above are taken from patent US20140112930A1 (published 2014).
